Assay results as given in the Human Domainome abundance scans (Beltran et al. 2025).
± gives the uncertainty stated by the source.

assay: abundance fitness (aPCA) (normalised: wild type 0, dead -1); higher = more abundant; growth selection in yeast, the domain comes from the species named; details: Homo sapiens

| Substance | abundance fitness |
| --- | --- |
| Lipoamide acyltransferase component of branched-chain alpha-keto acid dehydrogenase complex, mitochondrial N185D, P11182 | -0.178 ± 0.092 |
| Lipoamide acyltransferase component of branched-chain alpha-keto acid dehydrogenase complex, mitochondrial N185E, P11182 | -0.09 ± 0.086 |
| Lipoamide acyltransferase component of branched-chain alpha-keto acid dehydrogenase complex, mitochondrial N185H, P11182 | -0.164 ± 0.16 |
| Lipoamide acyltransferase component of branched-chain alpha-keto acid dehydrogenase complex, mitochondrial N185I, P11182 | -0.83 ± 0.09 |
| Lipoamide acyltransferase component of branched-chain alpha-keto acid dehydrogenase complex, mitochondrial N185K, P11182 | 0.016 ± 0.1 |
| Lipoamide acyltransferase component of branched-chain alpha-keto acid dehydrogenase complex, mitochondrial N185L, P11182 | -0.514 ± 0.26 |
| Lipoamide acyltransferase component of branched-chain alpha-keto acid dehydrogenase complex, mitochondrial N185M, P11182 | -0.273 ± 0.18 |
| Lipoamide acyltransferase component of branched-chain alpha-keto acid dehydrogenase complex, mitochondrial N185P, P11182 | -1.01 ± 0.17 |
| Lipoamide acyltransferase component of branched-chain alpha-keto acid dehydrogenase complex, mitochondrial N185Q, P11182 | -0.155 ± 0.11 |
| Lipoamide acyltransferase component of branched-chain alpha-keto acid dehydrogenase complex, mitochondrial N185R, P11182 | -0.165 ± 0.1 |
| Lipoamide acyltransferase component of branched-chain alpha-keto acid dehydrogenase complex, mitochondrial N185V, P11182 | -0.744 ± 0.1 |
| Lipoamide acyltransferase component of branched-chain alpha-keto acid dehydrogenase complex, mitochondrial N185W, P11182 | -0.688 ± 0.16 |
| Lipoamide acyltransferase component of branched-chain alpha-keto acid dehydrogenase complex, mitochondrial N207A, P11182 | 0.034 ± 0.04 |
| Lipoamide acyltransferase component of branched-chain alpha-keto acid dehydrogenase complex, mitochondrial N207C, P11182 | -0.302 ± 0.1 |
| Lipoamide acyltransferase component of branched-chain alpha-keto acid dehydrogenase complex, mitochondrial N207D, P11182 | -0.009 ± 0.049 |
| Lipoamide acyltransferase component of branched-chain alpha-keto acid dehydrogenase complex, mitochondrial N207E, P11182 | -0.043 ± 0.047 |
| Lipoamide acyltransferase component of branched-chain alpha-keto acid dehydrogenase complex, mitochondrial N207F, P11182 | -0.339 ± 0.091 |
| Lipoamide acyltransferase component of branched-chain alpha-keto acid dehydrogenase complex, mitochondrial N207G, P11182 | -0.03 ± 0.042 |
| Lipoamide acyltransferase component of branched-chain alpha-keto acid dehydrogenase complex, mitochondrial N207I, P11182 | -0.261 ± 0.14 |
| Lipoamide acyltransferase component of branched-chain alpha-keto acid dehydrogenase complex, mitochondrial N207L, P11182 | -0.048 ± 0.048 |
| Lipoamide acyltransferase component of branched-chain alpha-keto acid dehydrogenase complex, mitochondrial N207P, P11182 | -0.199 ± 0.051 |
| Lipoamide acyltransferase component of branched-chain alpha-keto acid dehydrogenase complex, mitochondrial N207Q, P11182 | 0.035 ± 0.066 |
| Lipoamide acyltransferase component of branched-chain alpha-keto acid dehydrogenase complex, mitochondrial N207S, P11182 | -0.017 ± 0.044 |
| Lipoamide acyltransferase component of branched-chain alpha-keto acid dehydrogenase complex, mitochondrial N207V, P11182 | -0.11 ± 0.042 |

| Substance | abundance fitness |
| --- | --- |
| Lipoamide acyltransferase component of branched-chain alpha-keto acid dehydrogenase complex, mitochondrial N207W, P11182 | -0.183 ± 0.041 |
| Lipoamide acyltransferase component of branched-chain alpha-keto acid dehydrogenase complex, mitochondrial N207Y, P11182 | -0.453 ± 0.23 |
| Lipoamide acyltransferase component of branched-chain alpha-keto acid dehydrogenase complex, mitochondrial P175A, P11182 | 0.023 ± 0.044 |
| Lipoamide acyltransferase component of branched-chain alpha-keto acid dehydrogenase complex, mitochondrial P175C, P11182 | -0.151 ± 0.062 |
| Lipoamide acyltransferase component of branched-chain alpha-keto acid dehydrogenase complex, mitochondrial P175D, P11182 | 0.038 ± 0.048 |
| Lipoamide acyltransferase component of branched-chain alpha-keto acid dehydrogenase complex, mitochondrial P175E, P11182 | 0.037 ± 0.047 |
| Lipoamide acyltransferase component of branched-chain alpha-keto acid dehydrogenase complex, mitochondrial P175F, P11182 | -0.098 ± 0.064 |
| Lipoamide acyltransferase component of branched-chain alpha-keto acid dehydrogenase complex, mitochondrial P175G, P11182 | -0.268 ± 0.035 |
| Lipoamide acyltransferase component of branched-chain alpha-keto acid dehydrogenase complex, mitochondrial P175I, P11182 | -0.133 ± 0.065 |
| Lipoamide acyltransferase component of branched-chain alpha-keto acid dehydrogenase complex, mitochondrial P175K, P11182 | 0.024 ± 0.042 |
| Lipoamide acyltransferase component of branched-chain alpha-keto acid dehydrogenase complex, mitochondrial P175L, P11182 | -0.119 ± 0.056 |
| Lipoamide acyltransferase component of branched-chain alpha-keto acid dehydrogenase complex, mitochondrial P175M, P11182 | -0.051 ± 0.081 |
| Lipoamide acyltransferase component of branched-chain alpha-keto acid dehydrogenase complex, mitochondrial P175N, P11182 | -0.096 ± 0.053 |
| Lipoamide acyltransferase component of branched-chain alpha-keto acid dehydrogenase complex, mitochondrial P175Q, P11182 | -0.008 ± 0.048 |
| Lipoamide acyltransferase component of branched-chain alpha-keto acid dehydrogenase complex, mitochondrial P175R, P11182 | -0.16 ± 0.041 |
| Lipoamide acyltransferase component of branched-chain alpha-keto acid dehydrogenase complex, mitochondrial P175S, P11182 | -0.127 ± 0.044 |
| Lipoamide acyltransferase component of branched-chain alpha-keto acid dehydrogenase complex, mitochondrial P175T, P11182 | -0.016 ± 0.052 |
| Lipoamide acyltransferase component of branched-chain alpha-keto acid dehydrogenase complex, mitochondrial P175V, P11182 | -0.029 ± 0.043 |
| Lipoamide acyltransferase component of branched-chain alpha-keto acid dehydrogenase complex, mitochondrial P175W, P11182 | -0.136 ± 0.042 |
| Lipoamide acyltransferase component of branched-chain alpha-keto acid dehydrogenase complex, mitochondrial P175Y, P11182 | -0.24 ± 0.066 |
| Lipoamide acyltransferase component of branched-chain alpha-keto acid dehydrogenase complex, mitochondrial Q212A, P11182 | 0.006 ± 0.036 |
| Lipoamide acyltransferase component of branched-chain alpha-keto acid dehydrogenase complex, mitochondrial Q212C, P11182 | -0.047 ± 0.052 |
| Lipoamide acyltransferase component of branched-chain alpha-keto acid dehydrogenase complex, mitochondrial Q212D, P11182 | -0.009 ± 0.13 |
| Lipoamide acyltransferase component of branched-chain alpha-keto acid dehydrogenase complex, mitochondrial Q212E, P11182 | 0.02 ± 0.043 |
